Measurements published in patent US7618800B2, “Glycerol kinase, which has high resistance against preservative” (Toyo Boseki Kabushiki Kaisha, priority 2002, dated 2009).

Key:
[1] = Km value for ATP (Lineweaver-Burk, assay method 1); assay type: biochemical; conditions: ATP concentration changed
Method: (§1) Generally, the activity was assayed by the method. Using glycerol as substrate, the enzyme activity was assayed on the basis of the amount of produced glycerol-3-phosphoric acid. By adding 0.1 M HEPES buffer of pH 7.9 to 0.2 ml of 0.5% 4-aminoantipyrine solution, 0.2 ml of 1.5% phenol solution, 200 U of the oxidase of glycerol-3-phosphoric acid, 80 U of peroxidase, and 48.4 mg of ATP, a total volume is adjusted to be 21 ml. The resulting solution was used as the stock solution for the following assays. To 3 ml of the assay stock solution, 50 μl of 0.3 M glycerol solution and 100 μl of the enzyme solution were added and mixed. Each reaction was assayed by recording the absorbance at 500 nm for 3 minutes with a spectrophotometer which is controlled to be 37° C., and calculating the change of the absorbance per minute on the initial linear part (triangle OD test). A blank test was conducted by adding 100 μl of a diluted enzyme solution (20 mM potassium phosphate buffer of pH 7.5 containing 0.2% bovine serum albumin) instead of the enzyme solution and carrying out the same procedures as described above and calculating the change of the absorbance per minute (triangle OD blank). […]

[2] = Resistance against preservative (remaining activity ratio); assay type: physicochemical
Method: (§2) After dissolving glycerol kinase from each origin in 50 mM potassium phosphate buffer of pH 7.5 to become about 5 U/ml, each preservative was added at a concentration shown in the figure and stored at 4° C. for one week, to assay the remaining activity. […] The remaining activity ratio of the enzyme from each origin is shown in the order from the top as the activity when 0.3 mM ProClin® 300 is present, 0.8 nM ProClin® 150 is present, 500 mg/L IZU is present, 100 mg/L MIT is present and no preservative is added.
as §2, with “25°” for “4°”, “week” for “week,”, “mM” for “nM”
The resistance against preservative in the present invention can be evaluated on the basis of the remaining activity ratio when about 5 U/mL glycerol kinase coexists with preservative at 25° C. for one week in 50 mM potassium phosphate buffer of pH 7.5.
The Km values of glycerol and ATP were calculated according to the Lineweaver-Burk equation according to the method described in the section “Method for assaying glycerol kinase activity” <method 1>, wherein the concentration of glycerol or ATP was changed to assay the glycerol kinase activity at each substrate concentration. • (8) Relative activity: About 41.2 U/mg • (9) Resistance against the presence of preservative: Remaining activity ratio in coexistence with 100 mg/L MIT in 50 mM potassium phosphate buffer of pH 7.5 is shown in FIGS. 5 and 6. The activity was assayed according to the method 1.

[3] = pH stability of glycerol kinase; assay type: physicochemical; conditions: 20 hr treatment at 25° C.
Method: Glycerol kinase was dissolved in each of 50 mM buffers to become about 10 U/ml and stored at 25° C. for 20 hours. Subsequently, glycerol kinase activity was assayed to determine remaining activity. […] Black circles express the reaction in the presence of acetate buffer; black squares express the reaction in the presence of potassium phosphate buffer; black diamonds express the reaction in the presence of CHES buffer; black triangles express the reaction in the presence of CAPS buffer.

[4] = Glycerol kinase activity by rate assay (relative activity of purified enzyme); assay type: biochemical; conditions: protein approximated from absorbance at 280 nm
Method: Generally, the activity was assayed by the method. Using glycerol as substrate, the enzyme activity was assayed on the basis of the amount of produced glycerol-3-phosphoric acid. By adding 0.1 M HEPES buffer of pH 7.9 to 0.2 ml of 0.5% 4-aminoantipyrine solution, 0.2 ml of 1.5% phenol solution, 200 U of the oxidase of glycerol-3-phosphoric acid, 80 U of peroxidase, and 48.4 mg of ATP, a total volume is adjusted to be 21 ml. The resulting solution was used as the stock solution for the following assays. To 3 ml of the assay stock solution, 50 μl of 0.3 M glycerol solution and 100 μl of the enzyme solution were added and mixed. Each reaction was assayed by recording the absorbance at 500 nm for 3 minutes with a spectrophotometer which is controlled to be 37° C., and calculating the change of the absorbance per minute on the initial linear part (triangle OD test). A blank test was conducted by adding 100 μl of a diluted enzyme solution (20 mM potassium phosphate buffer of pH 7.5 containing 0.2% bovine serum albumin) instead of the enzyme solution and carrying out the same procedures as described above and calculating the change of the absorbance per minute (triangle OD blank).
Based on the change of the absorbance as obtained, the enzyme activity of glycerol kinase was calculated according to the following formula. […]

[5] = Optimal temperature (assay method 2); assay type: biochemical; conditions: reaction in 20 mM HEPES buffer, pH 7.9 for 5 minutes
Method: Glycerol kinase activity was assayed after reaction in […], pH 7.9 at each temperature for 5 minutes.
After dividing 3 ml of an active reaction solution (20 mM HEPES buffer of pH 7.9 containing 4 mM ATP and 2 mM magnesium chloride) in a test tube, 0.1 ml of a glycerol kinase solution after dilution to an appropriate concentration (about 1 U/ml of the activity measured according to the assay method 1) was added thereto and mixed thoroughly. Then, the reaction mixture is preliminarily heated at each temperature for about 3 minutes. Then, 0.05 ml of aqueous 0.3 M glycerol solution was added and mixed for initiating the reaction. After the reaction for exact 10 minutes, 1 ml of 1N hydrochloric acid was added to terminate the enzyme reaction. After adding 0.15 ml of the reaction-terminated solution to 3 ml of a chromogenic solution (0.2 M HEPES buffer of pH 7.9 containing 0.01% 4-aminoantipyrin, 0.02% phenol, 5 U/ml peroxidase and 16 U/ml glycerol-3-phosphoric acid oxidase) and mixing, reaction at 37° C. for about 5 minutes was carried out to measure the absorbance at 500 nm. Then, the absorbance of 1 mM L-glycerol-3-phosphoric acid solution was simultaneously measured. The amount of L-glycerol-3-phosphoric acid produced via each of the reactions was determined. […]

[6] = Thermal stability of glycerol kinase; assay type: physicochemical; conditions: 50 mM potassium phosphate buffer, pH 7.5, 15-min treatment
Method: Glycerol kinase was dissolved in 50 mM potassium phosphate buffer of pH 7.5 to become about 10 U/ml and stored at each temperature for 15 minutes. Subsequently, glycerol kinase activity was assayed to determine the remaining activity.
After dissolving the glycerol kinase in 50 mM potassium phosphate buffer of pH 7.5 to become about 10 U/ml, glycerol kinases were stored at each temperature for 15 minutes to assay the remaining activity. […] Black circle expresses glycerol kinase of the present invention; black squares expresses glycerol kinase from Thermus fiavus.

[7] = Km value for glycerol (Lineweaver-Burk, assay method 1); assay type: biochemical; conditions: glycerol concentration changed
Method: as §1

[8] = Optimal pH (assay method 3); assay type: biochemical; conditions: 50 mM buffers, 37° C.
Method: Glycerol kinase activity was assayed after reaction in each 50 mM buffer at 37° C. for 5 minutes. […] Black circles express the reaction in the presence of 50 mM MES buffer; black squares express the reaction in the presence of 50 mM HEPES buffer; black diamonds express the reaction in the presence of TAPS buffer; black triangles express the reaction in the presence of 50 mM CHES buffer; and white circles express the reaction in the presence of 50 mM glycine-NaOH.
After dividing 3 ml of an active reaction solution (50 mM buffer at each pH, containing 4 mM ATP and 2 mM magnesium chloride) in a test tube, 0.1 ml of a glycerol kinase solution after dilution to an appropriate concentration (about 1 U/ml of the activity measured according to the assay method 1) was added thereto and mixed thoroughly. […] After adding 0.15 ml of the reaction-terminated solution to 3 ml of a chromogenic solution (0.2 M HEPES buffer of pH 7.9 containing 0.01% 4-aminoantipyrin, 0.02% phenol, 5 U/ml peroxidase and 16 U/ml glycerol-3-phosphoric acid oxidase) and mixing, reaction at 37° C. for about 5 minutes was carried out to measure the absorbance at 500 nm. Then, the absorbance of 1 mM L-glycerol-3-phosphoric acid solution was simultaneously measured. The amount of L-glycerol-3-phosphoric acid produced via each enzyme reaction was determined. […]

B1: glycerol kinase of the present invention: Recombinant glycerol kinase (SEQ ID NO:1) of Cellulomonas sp. JCM2471 gene, expressed in E. coli KM1 (pCGK12) and purified (protein)
chain: MADYVLAIDQGTTSSRAIVFNHSGEIYSTGQLEHDQIFPRAGWVEHNPEQIWNNVREVVGLALTRGNLTHEDIAAVGITNQRETAVVWDKTTGKPVYNAIVWQDTRTQKIVDELGGDEGAEKYKSIVGLPLATYFSGPKIKWILDNVEGAREKAEKGDLLFGNTDTWVLWNMTGGTEGGVHVTDVTNASRTMLMDLDTLSWREDIAADMGIPLSMLPDIRSSSEVYGHGRPRGLVPGVPIAGILGDQQAATFGQACFEVGQAKNTYGTGNFLLLNTGTEKVMSKNGLLTTVCYKIGDAPAVYALEGSIAVTGSLVQWLRDNLGMFEDAPDVEWLAGKVQDNGGAYFVPAFSGLFAPYWRPDARGALVGLTRYVNRNHIARAALEATAFQSREVVDAMNADSGVDLTELRVDGGMVANELLMQFQADQLGVDVVRPKVAETTALGAAYAAGIAVGFWKGEQDVIDNWAEDKRWSPSMESGERERLYRNWKKAVTKTMEWVDEDVEQ
modifications: Cellulomonas sp. JCM2471
notes: JCM2471 gene, expressed in E. coli KM1 (pCGK12) and purified
- Km [1]: ~111 µM
- Remaining activity ratio ([2]; 100 mg/L MIT, 50 mM potassium phosphate buffer pH 7.5, storage at 4° C. for one week): ~100%
- Remaining activity ratio ([2]; 100 mg/L MIT, 50 mM potassium phosphate buffer pH 7.5, storage at 25° C. for one week): about 92%
- Stability in the coexistence of preservatives (in words) ([2]; compared with glycerol kinase derived from Thermus flavus): high stability in the coexistence of preservatives
- Remaining activity ratio ([2]; storage at 25° C. for one week in coexistence with preservatives (sentence names none)): ≥ 90%
- pH stability (pH range with remaining activity of 90% or more) [3]: 6.0-10.0
- Relative activity [4]: about 41.2 U/mg protein
- Optimal temperature [5]: about 50 °C
- Thermal stability (temperature range with remaining activity of 90% or more) [6]: ≤ 45 °C
- Km [7]: ~6.9 µM
- Optimal pH [8]: about 10.0
